In US20260144882A1 (BIO THERA SOLUTIONS, published 2026):
Substitutions are numbered along the chain they refer to.

T1: human Nectin-4 extracellular antigen hNectin-4-His (human, UniProt Q96NY8 32-349)
T1 construct: C-terminal 8xHis tag included
T1 sequence: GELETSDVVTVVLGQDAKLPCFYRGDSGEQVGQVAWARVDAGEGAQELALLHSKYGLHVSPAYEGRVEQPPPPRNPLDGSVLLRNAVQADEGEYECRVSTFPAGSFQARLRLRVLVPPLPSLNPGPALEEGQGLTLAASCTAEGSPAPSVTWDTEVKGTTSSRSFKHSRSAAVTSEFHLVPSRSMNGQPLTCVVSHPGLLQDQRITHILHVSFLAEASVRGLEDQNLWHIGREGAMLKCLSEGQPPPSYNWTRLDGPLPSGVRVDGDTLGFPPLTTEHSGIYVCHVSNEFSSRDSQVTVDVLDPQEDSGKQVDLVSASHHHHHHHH

B1: 1G8-2C7 scFv (scFv, V domains shown)
VH: EVQLVESGGGLVQPGGSLRLSCAASGYSFTNFAMSWVRQAPGKGLEWVSRISQDGGNKNYADSVKGRFTISRDNSKNTLYLQMNSLRAEDTAVYYCARQTEDRSYGYDLDYWGQGTLVTVSS
VL: DIQMTQSPSSLSASVGDRVTITCRASQGISSYLAWYQQKPGKAPKLLIYAASSLQSGVPSRFSGSGSGTDFTLTISSLQPEDFATYYCQQHYTTPPTFGQGTKVEIKR
notes: phage clone supernatant
B2: 1G8-2D6 scFv (scFv, V domains shown)
VH: B1 VH with Y27F, T30D, N31G, F32Y, Q53A, D54H, G55S, G56W, N59D
VL: B1 VL
notes: phage clone supernatant
B3: 1G8-2D7 scFv (scFv, V domains shown)
VH: B1 VH with Y27D, N31S, F32Y, Q53A, G55S, G56A, N57S, K58P, N59S
VL: B1 VL
notes: phage clone supernatant
B4: 1G8-2D9 scFv (scFv, V domains shown)
VH: EVQLVESGGGLVQPGGSLRLSCAASGDIFDGYSMSWVRQAPGKGLEWVSRIDTGGSVKNYADSVKGRFTISRDNSKNTLYLQMNSLRAEDTAVYYCARQTEDRSYGYDLDYWGQGTLVTVSS
VL: B1 VL
notes: phage clone supernatant
B5: 1G8-2D11 scFv (scFv, V domains shown)
VH: B4 VH with D27Y, I28S, D30S, Y32N, S33A, T53G, G54W, V57Y, K58T, N59D
VL: B1 VL
notes: phage clone supernatant
B6: 1G8-2E7 scFv (scFv, V domains shown)
VH: B1 VH with S28T, T30G, F32Y, Q53P, D54S, G55T, G56W, K58I, N59D
VL: B1 VL
notes: phage clone supernatant
B7: 1G8-2F2 scFv (scFv, V domains shown)
VH: B4 VH with D30G, G31S, S33A, D52S, T53S, G54H, S56A, V57S, K58R, N59D
VL: B1 VL
notes: phage clone supernatant
B8: 1G8-2F9 scFv (scFv, V domains shown)
VH: B1 VH with T30S, F32Y, Q53A, D54W, G56S, N57T, K58N
VL: B1 VL
notes: phage clone supernatant
B9: 1G8-2F11 scFv (scFv, V domains shown)
VH: B1 VH with S28T, T30G, N31S, F32N, Q53P, G55S, G56S, N57G, K58I, N59S
VL: B1 VL
notes: phage clone supernatant
B10: 1G8-2G3 scFv (scFv, V domains shown)
VH: B1 VH with Y27F, S28I, T30G, N31G, F32N, Q53S, G55K, N57T, K58T
VL: B1 VL
notes: phage clone supernatant
B11: 1G8-2G4 scFv (scFv, V domains shown)
VH: B4 VH with D27F, I28T, D30G, D52S, G54D, S56A, V57Y, K58T
VL: B1 VL
notes: phage clone supernatant
B12: 1G8-2G7 scFv (scFv, V domains shown)
VH: EVQLVESGGGLVQPGGSLRLSCAASGGTFYTYAMSWVRQAPGKGLEWVSRIYSTKGTPDYADSVKGRFTISRDNSKNTLYLQMNSLRAEDTAVYYCARQTEDRSYGYDLDYWGQGTLVTVSS
VL: B1 VL
notes: phage clone supernatant
B13: 1G8-2G8 scFv (scFv, V domains shown)
VH: B1 VH with Y27F, S28N, F32Y, Q53T, D54Y, G56D, N57T, K58T, N59H
VL: B1 VL
notes: phage clone supernatant
B14: 1G8-2G9 scFv (scFv, V domains shown)
VH: B1 VH with S28I, F32Y, D54S, N57T, K58N, N59D
VL: B1 VL
notes: phage clone supernatant
B15: 1G8-2H1 scFv (scFv, V domains shown)
VH: B1 VH with T30Y, N31S, F32Y, D54G, N57V, K58T, N59H
VL: B1 VL
notes: phage clone supernatant
B16: 1G8-2H3 scFv (scFv, V domains shown)
VH: B12 VH with G27Y, T28S, Y30G, T31G, Y52S, S53G, T54I, G56A, T57Y, P58N
VL: B1 VL
notes: phage clone supernatant
B17: 1G8-2H4 scFv (scFv, V domains shown)
VH: B1 VH with Y27D, N31G, F32Y, R50A, Q53G, D54S, N57S, K58T, N59Y
VL: B1 VL
notes: phage clone supernatant
B18: 1G8-2H8 scFv (scFv, V domains shown)
VH: EVQLVESGGGLVQPGGSLRLSCAASGDIFGSYAMSWVRQAPGKGLEWVSAISGSGGSTYYADSVKGRFTISRDNSKNTLYLQMNSLRAEDTAVYYCARQTEDRSYGYDLDYWGQGTLVTVSS
VL: B1 VL
notes: phage clone supernatant
B19: 1G8-2H9 scFv (scFv, V domains shown)
VH: B12 VH with G27F, T28N, Y30G, T31N, R50A, T54Y, K55F, G56D, T57E, D59R
VL: B1 VL
notes: phage clone supernatant
B20: 1G8-2H10 scFv (scFv, V domains shown)
VH: B1 VH with S28N, F32S, R50S, S52Y, Q53Y, D54H, G55S, N57V, K58P, N59R
VL: B1 VL
notes: phage clone supernatant
B21: 1G8-2H11 scFv (scFv, V domains shown)
VH: EVQLVESGGGLVQPGGSLRLSCAASGFNFDNYAMSWVRQAPGKGLEWVSRIYGWDWYASYADSVKGRFTISRDNSKNTLYLQMNSLRAEDTAVYYCARQTEDRSYGYDLDYWGQGTLVTVSS
VL: B1 VL
notes: phage clone supernatant
B22: 1G8-1F5 scFv (scFv, V domains shown)
VH: EVQLVESGGGLVQPGGSLRLSCAASGDIFDTYMSWVRQAPGKGLEWVSRIYTDGSSDYADSVKGRFTISRDNSKNTLYLQMNSLRAEDTAVYYCARQTEDRSYGYDLDYWGQGTLVTVSS
VL: B1 VL
notes: phage clone supernatant
B23: 1G8-2B12 scFv (scFv, V domains shown)
VH: B4 VH with I28T, D30G, G31T, Y32S, G54W, S56W, V57Y, N59F
VL: B1 VL
notes: phage clone supernatant
B24: 1G8-2G12 scFv (scFv, V domains shown)
VH: B21 VH with N28T, D30S, Y32N, R50A, G53A, W54S, D55T, W56D, Y57G, A58R
VL: B1 VL
notes: phage clone supernatant
B25: 10F4-2A9 scFv (scFv, V domains shown)
VH: EVQLVESGGGLVQPGGSLRLSCAASGYTFTDYDMSWVRQAPGKGLEWVSGIKQYKGYTSYADSVKGRFTISRDNSKNTLYLQMNSLRAEDTAVYYCAREYSDVVDYVSVRTPLDYWGQGTLVTVSS
VL: B1 VL
notes: phage clone supernatant
B26: 10F4-1 scFv (scFv, V domains shown)
VH: B25 VH with Y27D, T28S, D31N, D33W, K52S, Y54G, K55G, G56S, T58A, S59Y
VL: B1 VL
notes: phage clone supernatant
B27: 10F4-1A1 scFv (scFv, V domains shown)
VH: EVQLVESGGGLVQPGGSLRLSCAASGFSFDNYDMSWVRQAPGKGLEWVSSIKPGSAYKFYADSVKGRFTISRDNSKNTLYLQMNSLRAEDTAVYYCAREYSDVVDYVSVRTPLDYWGQGTLVTVSS
VL: B1 VL
notes: phage clone supernatant
B28: 10F4-1A3 scFv (scFv, V domains shown)
VH: B25 VH with T28S, T30S, D31N, Q53G, Y54W, G56S, S59G
VL: B1 VL
notes: phage clone supernatant

Target: T1, human Nectin-4 extracellular antigen …
Experiment: ELISA, phage scFv supernatant 1:50

Row | Binder | OD value [OD]
1 | B1 | 1.58
2 | B2 | 1.63
3 | B3 | 1.54
4 | B4 | 1.54
5 | B5 | 1.53
6 | B6 | 1.56
7 | B7 | 1.6
8 | B8 | 1.56
9 | B9 | 1.57
10 | B10 | 1.58
11 | B11 | 1.58
12 | B12 | 1.49
13 | B13 | 1.58
14 | B14 | 1.54
15 | B15 | 1.58
16 | B16 | 1.53
17 | B17 | 1.58
18 | B18 | 1.57
19 | B19 | 1.46
20 | B20 | 1.53
21 | B21 | 1.35
22 | B22 | 1.56
23 | B23 | 1.39
24 | B24 | 1.5
25 | B25 | 1.57
26 | B26 | 1.39
27 | B27 | 1.69
28 | B28 | 1.53
